Data: patent US10562947B2, “Compositions and methods for preventing or treating diseases, conditions or processes characterized by aberrant fibroblast proliferation and extracellular matrix deposition” (MOERAE MATRIX, INC., priority 2011, dated 2020)

Tests used:
Assay in all cases: Kinase Profiling Assay
Format in all cases: biochemical
Details in all cases: 100 μM peptide
CDK5/p25(h) = CDK5/p25(h) (Homo sapiens, UniProt Q00535)
In short: (§1)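 Selectivity profiling: MK2-targeting peptides tested on 266 human kinases. All activity determinations done in duplicate.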

PDK1(h) = target: T1, PDK1(h) (Homo sapiens, UniProt O15530)
T1 sequence (O15530 1-556): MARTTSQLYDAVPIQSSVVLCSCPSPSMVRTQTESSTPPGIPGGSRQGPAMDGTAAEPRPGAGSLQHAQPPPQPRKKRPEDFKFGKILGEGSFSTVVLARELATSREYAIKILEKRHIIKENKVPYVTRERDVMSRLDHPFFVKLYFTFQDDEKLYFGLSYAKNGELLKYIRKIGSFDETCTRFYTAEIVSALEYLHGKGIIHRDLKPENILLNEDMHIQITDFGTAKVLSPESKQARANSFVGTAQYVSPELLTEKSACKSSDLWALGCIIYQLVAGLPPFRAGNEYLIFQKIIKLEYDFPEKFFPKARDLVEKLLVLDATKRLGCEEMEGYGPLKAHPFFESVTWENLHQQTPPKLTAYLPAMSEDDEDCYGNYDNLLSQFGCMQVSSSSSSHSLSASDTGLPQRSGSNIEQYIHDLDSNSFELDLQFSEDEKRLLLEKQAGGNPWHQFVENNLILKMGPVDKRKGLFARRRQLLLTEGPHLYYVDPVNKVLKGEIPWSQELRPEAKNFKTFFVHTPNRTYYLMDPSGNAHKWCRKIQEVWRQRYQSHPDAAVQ
In short: as §1

PKCγ(h) = PKCγ(h) (Homo sapiens, UniProt P05129)
In short: as §1

BTK(R28H)(h) = BTK(R28H)(h) (Homo sapiens, UniProt Q06187, R28H)
In short: as §1

p70S6K(h) = p70S6K(h) (Homo sapiens, UniProt P23443)
Sequence of p70S6K(h) (P23443 whole entry): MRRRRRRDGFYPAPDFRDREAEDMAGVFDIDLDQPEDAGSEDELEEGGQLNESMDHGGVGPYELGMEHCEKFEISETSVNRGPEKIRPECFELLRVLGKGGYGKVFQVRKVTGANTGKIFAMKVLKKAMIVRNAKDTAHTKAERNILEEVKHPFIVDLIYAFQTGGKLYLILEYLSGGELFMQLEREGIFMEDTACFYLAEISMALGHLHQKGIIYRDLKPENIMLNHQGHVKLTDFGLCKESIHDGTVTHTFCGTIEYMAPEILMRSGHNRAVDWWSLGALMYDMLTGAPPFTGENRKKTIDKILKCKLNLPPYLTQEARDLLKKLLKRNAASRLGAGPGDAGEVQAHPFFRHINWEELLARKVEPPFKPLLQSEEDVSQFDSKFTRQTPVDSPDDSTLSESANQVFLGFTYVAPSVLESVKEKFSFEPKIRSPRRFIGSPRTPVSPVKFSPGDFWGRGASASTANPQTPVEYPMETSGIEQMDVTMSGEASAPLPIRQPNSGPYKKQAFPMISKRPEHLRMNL
In short: as §1

JAK2(h) = target: T2, JAK2(h) (Homo sapiens, UniProt O60674)
T2 construct: purchased Millipore
In short: as §1

GRK6(h) = target: T3, GRK6(h) (Homo sapiens, UniProt P43250)
T3 construct: purchased Millipore
T3 sequence (P43250 whole entry): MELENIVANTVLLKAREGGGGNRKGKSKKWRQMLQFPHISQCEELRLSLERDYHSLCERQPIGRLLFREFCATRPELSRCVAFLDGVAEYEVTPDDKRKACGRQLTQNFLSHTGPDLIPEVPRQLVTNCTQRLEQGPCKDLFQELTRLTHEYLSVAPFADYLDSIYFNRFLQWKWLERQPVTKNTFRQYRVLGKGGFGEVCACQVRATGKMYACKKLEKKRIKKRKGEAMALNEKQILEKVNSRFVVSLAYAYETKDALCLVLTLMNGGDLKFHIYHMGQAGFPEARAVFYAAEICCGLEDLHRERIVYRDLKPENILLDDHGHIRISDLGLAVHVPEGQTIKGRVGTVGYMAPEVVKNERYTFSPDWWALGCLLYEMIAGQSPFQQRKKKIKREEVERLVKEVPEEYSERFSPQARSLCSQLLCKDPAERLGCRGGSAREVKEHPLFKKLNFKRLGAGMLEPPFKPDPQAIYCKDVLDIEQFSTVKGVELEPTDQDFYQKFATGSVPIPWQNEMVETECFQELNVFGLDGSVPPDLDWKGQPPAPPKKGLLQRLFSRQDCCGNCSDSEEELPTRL
In short: as §1

FGFR2(h) = FGFR2(h) (Homo sapiens, UniProt P21802)
In short: as §1

EphB4(h) = target: T4, EphB4(h) (Homo sapiens, UniProt P54760)
T4 sequence (P54760 16-987): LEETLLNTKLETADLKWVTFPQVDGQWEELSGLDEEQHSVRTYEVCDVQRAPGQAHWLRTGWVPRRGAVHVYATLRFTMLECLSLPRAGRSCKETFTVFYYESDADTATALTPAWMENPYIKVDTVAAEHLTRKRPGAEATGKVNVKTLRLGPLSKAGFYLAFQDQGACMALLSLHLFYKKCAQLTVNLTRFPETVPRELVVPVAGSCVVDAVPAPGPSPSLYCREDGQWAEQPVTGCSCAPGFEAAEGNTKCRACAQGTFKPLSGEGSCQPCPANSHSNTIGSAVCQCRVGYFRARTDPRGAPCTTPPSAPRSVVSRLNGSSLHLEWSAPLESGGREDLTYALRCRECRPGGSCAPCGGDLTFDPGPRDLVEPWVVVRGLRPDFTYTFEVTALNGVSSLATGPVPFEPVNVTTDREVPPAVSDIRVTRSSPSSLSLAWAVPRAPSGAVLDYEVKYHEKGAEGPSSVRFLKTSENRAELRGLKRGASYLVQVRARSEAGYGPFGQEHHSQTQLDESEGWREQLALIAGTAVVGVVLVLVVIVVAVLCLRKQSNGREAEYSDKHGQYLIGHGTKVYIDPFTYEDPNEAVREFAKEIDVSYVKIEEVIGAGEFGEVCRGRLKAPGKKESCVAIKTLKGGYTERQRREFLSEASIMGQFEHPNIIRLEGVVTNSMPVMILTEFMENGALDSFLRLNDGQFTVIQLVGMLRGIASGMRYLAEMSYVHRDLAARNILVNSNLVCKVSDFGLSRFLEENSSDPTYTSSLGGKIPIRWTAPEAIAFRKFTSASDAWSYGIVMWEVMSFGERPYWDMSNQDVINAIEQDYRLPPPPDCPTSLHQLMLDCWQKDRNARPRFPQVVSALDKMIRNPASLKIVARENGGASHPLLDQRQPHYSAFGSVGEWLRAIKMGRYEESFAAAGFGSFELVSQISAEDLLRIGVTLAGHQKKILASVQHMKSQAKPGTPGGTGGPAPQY
In short: as §1

MELK(h) = MELK(h) (Homo sapiens, UniProt Q14680)
Sequence of MELK(h) (Q14680 whole entry): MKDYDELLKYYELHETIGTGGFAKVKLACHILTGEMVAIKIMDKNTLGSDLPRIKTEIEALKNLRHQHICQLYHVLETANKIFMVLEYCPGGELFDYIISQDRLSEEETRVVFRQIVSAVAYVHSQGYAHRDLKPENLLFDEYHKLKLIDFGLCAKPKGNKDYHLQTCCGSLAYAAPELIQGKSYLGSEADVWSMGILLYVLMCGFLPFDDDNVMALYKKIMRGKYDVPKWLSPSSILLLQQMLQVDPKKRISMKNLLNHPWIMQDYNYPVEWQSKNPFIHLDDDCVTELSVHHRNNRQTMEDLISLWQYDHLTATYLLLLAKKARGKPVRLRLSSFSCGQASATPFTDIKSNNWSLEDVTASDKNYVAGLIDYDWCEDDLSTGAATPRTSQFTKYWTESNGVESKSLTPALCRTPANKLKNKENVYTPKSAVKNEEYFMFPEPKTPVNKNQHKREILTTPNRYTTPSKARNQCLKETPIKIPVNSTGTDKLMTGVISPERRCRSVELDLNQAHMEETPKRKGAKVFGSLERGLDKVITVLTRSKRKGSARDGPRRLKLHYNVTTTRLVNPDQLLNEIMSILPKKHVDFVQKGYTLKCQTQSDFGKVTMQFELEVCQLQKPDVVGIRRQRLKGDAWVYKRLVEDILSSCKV
In short: as §1

Abl(Y253F)(h) = Abl(Y253F)(h) (Homo sapiens, UniProt P00519, Y253F)
In short: as §1

SRPK1(h) = SRPK1(h) (Homo sapiens, UniProt Q96SB4)
Sequence of SRPK1(h) (Q96SB4 whole entry): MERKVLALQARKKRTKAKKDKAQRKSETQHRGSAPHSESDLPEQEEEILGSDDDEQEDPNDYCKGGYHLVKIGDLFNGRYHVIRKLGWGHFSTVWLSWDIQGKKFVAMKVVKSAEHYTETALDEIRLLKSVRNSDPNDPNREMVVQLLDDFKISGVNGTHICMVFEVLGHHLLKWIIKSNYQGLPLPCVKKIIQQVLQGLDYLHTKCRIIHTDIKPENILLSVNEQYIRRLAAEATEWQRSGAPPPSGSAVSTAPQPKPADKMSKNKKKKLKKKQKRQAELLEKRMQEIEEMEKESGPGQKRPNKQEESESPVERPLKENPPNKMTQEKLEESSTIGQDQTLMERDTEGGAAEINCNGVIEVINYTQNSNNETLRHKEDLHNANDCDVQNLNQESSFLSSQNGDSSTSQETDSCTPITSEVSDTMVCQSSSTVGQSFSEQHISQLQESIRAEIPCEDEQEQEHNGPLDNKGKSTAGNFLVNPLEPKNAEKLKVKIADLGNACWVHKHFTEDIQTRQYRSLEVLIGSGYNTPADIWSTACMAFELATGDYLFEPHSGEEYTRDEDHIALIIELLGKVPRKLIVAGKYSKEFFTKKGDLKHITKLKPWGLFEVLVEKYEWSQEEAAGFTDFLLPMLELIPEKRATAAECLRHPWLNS
In short: as §1

Ret(h) = target: T5, Ret(h) (Homo sapiens, UniProt P07949)
T5 construct: purchased Millipore (IC50 Profiler Express service)
In short: as §1

Fyn(h) = Fyn(h) (Homo sapiens, UniProt P06241)
Sequence of Fyn(h) (P06241 whole entry): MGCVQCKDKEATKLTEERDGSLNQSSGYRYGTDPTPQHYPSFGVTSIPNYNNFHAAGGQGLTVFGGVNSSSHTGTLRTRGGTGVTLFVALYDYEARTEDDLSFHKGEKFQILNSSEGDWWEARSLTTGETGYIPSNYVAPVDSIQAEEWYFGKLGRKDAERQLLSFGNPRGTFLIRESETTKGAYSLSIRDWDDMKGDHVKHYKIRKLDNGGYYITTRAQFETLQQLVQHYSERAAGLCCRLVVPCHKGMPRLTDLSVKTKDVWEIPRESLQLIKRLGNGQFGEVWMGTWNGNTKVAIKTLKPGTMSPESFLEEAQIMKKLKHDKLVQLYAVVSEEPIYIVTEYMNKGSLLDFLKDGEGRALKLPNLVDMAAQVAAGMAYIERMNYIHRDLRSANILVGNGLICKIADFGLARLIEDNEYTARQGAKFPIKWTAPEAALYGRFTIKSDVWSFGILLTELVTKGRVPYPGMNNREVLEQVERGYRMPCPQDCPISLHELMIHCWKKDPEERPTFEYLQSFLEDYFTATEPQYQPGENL
In short: as §1

PAK2(h) = PAK2(h) (Homo sapiens, UniProt Q13177)
Sequence of PAK2(h) (Q13177 whole entry): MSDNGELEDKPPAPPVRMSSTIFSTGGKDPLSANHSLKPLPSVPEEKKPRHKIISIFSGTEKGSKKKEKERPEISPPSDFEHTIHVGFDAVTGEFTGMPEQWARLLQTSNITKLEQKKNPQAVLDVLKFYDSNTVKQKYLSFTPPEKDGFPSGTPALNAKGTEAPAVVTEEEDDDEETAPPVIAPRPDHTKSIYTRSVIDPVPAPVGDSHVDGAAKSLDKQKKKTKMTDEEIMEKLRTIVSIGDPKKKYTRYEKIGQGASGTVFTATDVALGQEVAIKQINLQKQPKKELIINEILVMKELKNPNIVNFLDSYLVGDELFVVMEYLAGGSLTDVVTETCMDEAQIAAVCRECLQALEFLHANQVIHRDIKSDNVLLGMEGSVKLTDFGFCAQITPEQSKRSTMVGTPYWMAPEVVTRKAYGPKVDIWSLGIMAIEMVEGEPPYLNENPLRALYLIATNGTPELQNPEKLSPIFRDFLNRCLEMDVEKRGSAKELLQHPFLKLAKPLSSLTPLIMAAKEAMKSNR
In short: as §1

Sequence of CDK5/p25(h) (Q00535 whole entry): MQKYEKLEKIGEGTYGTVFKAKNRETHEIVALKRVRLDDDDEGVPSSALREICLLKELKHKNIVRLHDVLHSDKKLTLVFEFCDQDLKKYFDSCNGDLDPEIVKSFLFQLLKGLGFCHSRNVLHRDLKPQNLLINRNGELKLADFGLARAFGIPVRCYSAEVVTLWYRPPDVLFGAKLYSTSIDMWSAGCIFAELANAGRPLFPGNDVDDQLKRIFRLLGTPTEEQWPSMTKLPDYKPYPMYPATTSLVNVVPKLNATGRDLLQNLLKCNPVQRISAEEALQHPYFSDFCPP
Sequence of CDK5/p25(h) (Q15078 99-307 partner limits assumed): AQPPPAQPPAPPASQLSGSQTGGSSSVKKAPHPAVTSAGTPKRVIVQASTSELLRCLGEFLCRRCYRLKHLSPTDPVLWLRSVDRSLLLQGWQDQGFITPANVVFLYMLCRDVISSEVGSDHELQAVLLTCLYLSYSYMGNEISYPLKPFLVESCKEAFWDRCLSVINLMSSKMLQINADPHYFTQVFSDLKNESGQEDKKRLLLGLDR

Row | Sequence | CDK5/p25(h) % activity (CDK5/p25(h)) [%] | PDK1(h) % activity (PDK1(h)) [%] | PKCγ(h) % activity (PKCγ(h)) [%] | BTK(R28H)(h) % activity (BTK(R28H)(h)) [%] | p70S6K(h) % activity (p70S6K(h)) [%] | JAK2(h) % activity (JAK2(h)) [%] | GRK6(h) % activity (GRK6(h)) [%] | FGFR2(h) % activity (FGFR2(h)) [%] | EphB4(h) % activity (EphB4(h)) [%] | MELK(h) % activity (MELK(h)) [%] | Abl(Y253F)(h) % activity (Abl(Y253F)(h)) [%] | SRPK1(h) % activity (SRPK1(h)) [%] | Ret(h) % activity (Ret(h)) [%] | Fyn(h) % activity (Fyn(h)) [%] | PAK2(h) % activity (PAK2(h)) [%]
1 | FAKLAARLYRKALARQLGVAA [MMI-0300] | 89 | 135 | 89 | 74 | 35 | 133 | 147 | 14 | 44 | 16 | 86 | 90 | 140 | 74 | 65
2 | HRRIKAWLKKIKALARQLGVAA (Mammalian) [MMI-0500] | 66 | 178 | 6 | 10 | 3 | 49 | 174 | 12 | 38 | 0 | 29 | 80 | 174 | 83 | 44
3 | KAFAKLAARLYRKALARQLGVAA [MMI-0400] | 92 | 159 | 79 | 24 | 33 | – | 141 | 18 | 28 | 17 | 78 | 96 | 145 | 54 | 59
4 | YARAAARQARAKALNRQLGVA (Mammalian) [MMI-0200] | 97 | 143 | 101 | – | 84 | 131 | 132 | 73 | 131 | 59 | – | 93 | 96 | 75 | 69
